The source of these data is US20060223116A1 (published 2006).

The test has as its target T1, murine ITK (endogenous, mouse thymocytes and CD4 T cells) (mouse, UniProt Q03526 1-625).
T1 construct: Endogenous protein of BALB/c mouse cells; also called endogenous ITK
T1 sequence: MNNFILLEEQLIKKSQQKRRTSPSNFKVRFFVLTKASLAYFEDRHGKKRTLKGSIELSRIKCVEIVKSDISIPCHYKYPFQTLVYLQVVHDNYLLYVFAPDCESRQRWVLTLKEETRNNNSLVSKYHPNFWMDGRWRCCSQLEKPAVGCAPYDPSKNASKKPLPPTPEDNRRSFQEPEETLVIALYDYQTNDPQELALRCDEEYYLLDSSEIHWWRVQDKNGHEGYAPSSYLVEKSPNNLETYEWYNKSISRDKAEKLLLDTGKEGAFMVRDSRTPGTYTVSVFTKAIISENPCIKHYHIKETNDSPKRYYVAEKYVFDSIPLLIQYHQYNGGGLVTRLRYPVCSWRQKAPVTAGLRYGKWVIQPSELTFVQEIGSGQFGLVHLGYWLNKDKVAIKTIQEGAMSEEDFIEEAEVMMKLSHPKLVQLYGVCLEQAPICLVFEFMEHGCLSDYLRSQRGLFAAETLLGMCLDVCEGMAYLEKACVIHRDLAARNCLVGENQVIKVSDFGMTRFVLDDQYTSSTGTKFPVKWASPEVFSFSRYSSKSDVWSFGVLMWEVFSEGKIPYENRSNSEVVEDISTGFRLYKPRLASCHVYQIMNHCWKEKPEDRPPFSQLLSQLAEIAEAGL
In words: IP of T-bet (4B10) from mouse thymocyte nuclear extracts, anti-ITK (2F12) blot. As to the method: Most important, it was determined whether ITK interacted with T-bet under physiological conditions, by determining endogenous association in primary thymocytes. Single cell suspensions were obtained from thymi of BALB/c wt, T-bet^{-/-} and ITK−/− mice and nuclear extracts were prepared with NE-PER (Pierce, Rockford) according to the manufacturer's instructions. Two mg of nuclear extracts were incubated with anti-T-bet mAb, 4B10, in 150 mM NaCl. Immune complexes were resolved and probed with anti-ITK mAb (2F12), and sequentially with 4B10 after stripping. ITK expression was assayed in 30 μg of nuclear extracts. Initial attempts to perform coimmunoprecipitation experiments in naïve Thp cells 24 and 48 hours after TCR stimulation failed, likely secondary to both the low levels of endogenous T-bet expressed at this early time point and the competing processes of phosphorylation and dephosphorylation occurring in activated cells.

B1: murine T-bet (endogenous, mouse thymocytes and Thp cells) (other, UniProt Q9JKD8 1-530, looked up)
chain: MGIVEPGCGDMLTGTEPMPSDEGRGPGADQQHRFFYPEPGAQDPTDRRAGSSLGTPYSGGALVPAAPGRFLGSFAYPPRAQVAGFPGPGEFFPPPAGAEGYPPVDGYPAPDPRAGLYPGPREDYALPAGLEVSGKLRVALSNHLLWSKFNQHQTEMIITKQGRRMFPFLSFTVAGLEPTSHYRMFVDVVLVDQHHWRYQSGKWVQCGKAEGSMPGNRLYVHPDSPNTGAHWMRQEVSFGKLKLTNNKGASNNVTQMIVLQSLHKYQPRLHIVEVNDGEPEAACSASNTHVFTFQETQFIAVTAYQNAEITQLKIDNNPFAKGFRENFESMYASVDTSVPSPPGPNCQLLGGDPFSPLLSNQYPVPSRFYPDLPGQPKDMISQPYWLGTPREHSYEAEFRAVSMKPTLLPSAPGPTVPYYRGQDVLAPGAGWPVAPQYPPKMSPAGWFRPMRTLPMDPGLGSSEEQGSSPSLWPEVTSLQPEPSDSGLGEGDTKRRRISPYPSSGDSSSPAGAPSPFDKETEGQFYNYFPN
notes: mature; Endogenous protein in nuclear extracts; also called endogenous T-bet
Regarding B1, the binding result is listed as “binds”.
